Data taken from patent US10064928B2, “Peptides and combination of peptides for use in immunotherapy against CLL and other cancers” (IMMATICS BIOTECHNOLOGIES GMBH, priority 2015, dated 2018).

Assays:
[1] = tested on: CD8+ T cells; test: In vitro T-cell priming assay with aAPCs loaded with peptide/MHC and anti-CD28, multimer readout; format: cell-based, human; conditions: in vitro immunogenicity, percentage of positive wells; for Wells positive [%]: HLA-A*02 restricted peptides; for wells: healthy HLA-A*02 donors
From the text: In order to obtain information regarding the immunogenicity of the TUMAPs of the present invention, the inventors performed investigations using an in vitro T-cell priming assay based on repeated stimulations of CD8+ T cells with artificial antigen presenting cells (aAPCs) loaded with peptide/MHC complexes and anti-CD28 antibody.
In order to perform in vitro stimulations by artificial antigen presenting cells loaded with peptide-MHC complex (pMHC) and anti-CD28 antibody, the inventors first isolated CD8+ T cells from fresh HLA-A*02 leukapheresis products via positive selection using CD8 microbeads (Miltenyi Biotec, Bergisch-Gladbach, Germany) of healthy donors obtained from the University clinics Mannheim, Germany, after informed consent.
PBMCs and isolated CD8+ lymphocytes were incubated in T-cell medium (TCM) until use consisting of RPMI-Glutamax (Invitrogen, Karlsruhe, Germany) supplemented with 10% heat inactivated human AB serum (PAN-Biotech, Aidenbach, Germany), 100 U/ml Penicillin/100 μg/ml Streptomycin (Cambrex, Cologne, Germany), 1 mM sodium pyruvate (CC Pro, Oberdorla, Germany), 20 μg/ml Gentamycin (Cambrex). 2.5 ng/ml IL-7 (PromoCell, Heidelberg, Germany) and 10 U/ml IL-2 (Novartis Pharma, Nürnberg, Germany) were also added to the TCM at this step.
Generation of pMHC/anti-CD28 coated beads, T-cell stimulations and readout was performed in a highly defined in vitro system using four different pMHC molecules per stimulation condition and 8 different pMHC molecules per readout condition.
The purified co-stimulatory mouse IgG2a anti human CD28 Ab 9.3 (Jung et al., 1987) was chemically biotinylated using Sulfo-N-hydroxysuccinimidobiotin as recommended by the manufacturer (Perbio, Bonn, Germany). Beads used were 5.6 μm diameter streptavidin coated polystyrene particles (Bangs Laboratories, Illinois, USA).
800.000 beads/200 μl were coated in 96-well plates in the presence of 4×12.5 ng different biotin-pMHC, washed and 600 ng biotin anti-CD28 were added subsequently in a volume of 200 μl. Stimulations were initiated in 96-well plates by co-incubating […] CD8+ T cells with 2×10^5 washed coated beads in 200 μl TCM supplemented with 5 ng/ml IL-12 (PromoCell) for 3 days at 37° C. Half of the medium was then exchanged by fresh TCM supplemented with 80 U/ml IL-2 and incubating was continued for 4 days at 37° C. This stimulation cycle was performed for a total of three times. For the pMHC multimer readout using 8 different pMHC molecules per condition, a two-dimensional combinatorial coding approach was used as previously described (Andersen et al., 2012) with minor modifications encompassing coupling to 5 different fluorochromes. Finally, multimeric analyses were performed by staining the cells with Live/dead near IR dye (Invitrogen, Karlsruhe, Germany), CD8-FITC antibody clone SK1 (BD, Heidelberg, Germany) and fluorescent pMHC multimers. For analysis, a BD LSRII SORP cytometer equipped with appropriate lasers and filters was used. Peptide specific cells were calculated as percentage of total CD8+ cells. Evaluation of multimeric analysis was done using the FlowJo software (Tree Star, Oreg., USA). In vitro priming of specific multimer+CD8+ lymphocytes was detected by comparing to negative control stimulations.

[2] = target: HLA-A*02:01 (Homo sapiens, UniProt P04439, D140Y/D185E/D98H/E176V/E277Q/G131W/G231S/I119V/I121R/I166T/I218V/L300P/L318F/N151K/N90K/P208A/P217A/Q86G/Q94H/R138H/R169H/T345S); test: MHC binding assay (UV-ligand exchange, beta2m ELISA); conditions: binding of HLA-class I restricted peptides to HLA-A*02:01, β2m ELISA
In short: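 UV-cleavable peptide in HLA monomers exchanged for test peptide by UV irradiation; exchange yield measured by streptavidin-capture ELISA with HRP anti-β2m (TMB, 450 nm) on 100-fold diluted complexes. Quantified against refolded HLA-A*02:01/MLA-001 standards (15-500 ng/ml).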

Row | Substance | Wells positive [%] [1] | Peptide Exchange (MHC class I binding score, peptide exchange yield) [2] | wells [1]
1 | 1 (AIPPSFASIFL; listed as Homo sapiens) [compound 1] | “+++” (50%-69% = +++) | “+++” (≥50 = +++) | –
2 | 2 (ALHRPDVYL; listed as Homo sapiens) [compound 2] | “+” (<20% = +) | “+++” (≥50 = +++) | –
3 | 5 (ALIFKIASA; listed as Homo sapiens) [compound 5] | “+++” (50%-69% = +++) | “+++” (≥50 = +++) | –
4 | 17 (ALTKTNLQL; listed as Homo sapiens) [compound 17] | “+” (<20% = +) | “+++” (≥50 = +++) | –
5 | 26 (AVLLVLPLV; listed as Homo sapiens) [compound 26] | “+” (<20% = +) | “+++” (≥50 = +++) | –
6 | 32 (FIDKFTPPV; listed as Homo sapiens) [compound 32] | “++++” (>=70% = ++++) | “++++” (≥75% = ++++) | –
7 | 49 (FLTDLFAQL; listed as Homo sapiens) [compound 49] | “++” (20%-49% = ++) | “++++” (≥75% = ++++) | –
8 | 54 (FLYPFPLALF; listed as Homo sapiens) [compound 54] | “+” (<20% = +) | “+++” (≥50 = +++) | –
9 | 56 (FVFEAPYTL; listed as Homo sapiens) [compound 56] | “++” (20%-49% = ++) | “+++” (≥50 = +++) | –
10 | 57 (GLSEISLRL; listed as Homo sapiens) [compound 57] | “+” (<20% = +) | “++++” (≥75% = ++++) | –
11 | 69 (GLHQREIFL; listed as Homo sapiens) [compound 69] | “+” (<20% = +) | “+++” (≥50 = +++) | –
12 | 81 (WLVGQEFEL; listed as Homo sapiens) [compound 81] | “+” (<20% = +) | “+++” (≥50 = +++) | –
13 | 86 (HLYPGAVTI; listed as Homo sapiens) [compound 86] | “+” (<20% = +) | “+++” (≥50 = +++) | –
14 | 96 (ILIDKTSFV; listed as Homo sapiens) [compound 96] | “+” (<20% = +) | “+++” (≥50 = +++) | –
15 | 100 (ILNNEVFAI; listed as Homo sapiens) [compound 100] | “++” (20%-49% = ++) | “+++” (≥50 = +++) | –
16 | 101 (ILVVIEPLL; listed as Homo sapiens) [compound 101] | “+” (<20% = +) | “++++” (≥75% = ++++) | –
17 | 102 (IQDRAVPSL; listed as Homo sapiens) [compound 102] | “+” (<20% = +) | “++” (≥20% = ++) | –
18 | 112 (KTLDVDATYEI; listed as Homo sapiens) [compound 112] | “+” (<20% = +) | “+++” (≥50 = +++) | –
19 | 114 (LIPEGPPQV; listed as Homo sapiens) [compound 114] | “+” (<20% = +) | “+++” (≥50 = +++) | –
20 | 154 (SLLAELHVLTV; listed as Homo sapiens) [compound 154] | “+” (<20% = +) | “++++” (≥75% = ++++) | –
21 | 192 (YIQEYLTLL; listed as Homo sapiens) [compound 192] | “+” (<20% = +) | “+++” (≥50 = +++) | –

Row | Substance | Wells positive [%] [1] | Peptide Exchange (MHC class I binding score, peptide exchange yield) [2] | wells [1]
22 | 197 (YLQEVPILTL; listed as Homo sapiens) [compound 197] | “+” (<20% = +) | “++++” (≥75% = ++++) | –
23 | 200 (YMFEEVPIVI; listed as Homo sapiens) [compound 200] | “+” (<20% = +) | “++++” (≥75% = ++++) | –
24 | 201 (YQLELHGIEL; listed as Homo sapiens) [compound 201] | “+” (<20% = +) | “++++” (≥75% = ++++) | –
25 | 202 (YVDDVFLRV; listed as Homo sapiens) [compound 202] | “++” (20%-49% = ++) | “++++” (≥75% = ++++) | –
26 | 220 (ALPEILFAKV; listed as Homo sapiens) [compound 220] | “++” (20%-49% = ++) | “+++” (≥50 = +++) | –
27 | 240 (ILARDILEI; listed as Homo sapiens) [compound 240] | “+” (<20% = +) | “+++” (≥50 = +++) | –
28 | 281 (NLLDDRGMTAL; listed as Homo sapiens) [compound 281] | “+” (<20% = +) | “+++” (≥50 = +++) | –
29 | 282 (LLRDGIELV; listed as Homo sapiens) [compound 282] | “++” (20%-49% = ++) | “+++” (≥50 = +++) | –
30 | 307 (LLLTKPTEA; listed as Homo sapiens) [compound 307] | “+” (<20% = +) | “+++” (≥50 = +++) | –
31 | 320 (TIAPVTVAV; listed as Homo sapiens) [compound 320] | “+” (<20% = +) | “++++” (≥75% = ++++) | –
32 | 322 (SLASIHVPL; listed as Homo sapiens) [compound 322] | “+” (<20% = +) | “+++” (≥50 = +++) | –
33 | 323 (SLDLFNCEV; listed as Homo sapiens) [compound 323] | “+” (<20% = +) | “++++” (≥75% = ++++) | –
34 | 329 (VLMDGSVKL; listed as Homo sapiens) [compound 329] | “+++” (50%-69% = +++) | “++++” (≥75% = ++++) | –
35 | 381 (YLLEENKIKL; listed as Homo sapiens) [compound 381] | – | “+++” (≥50 = +++) | –
36 | 382 (YLLPLLQRL; listed as Homo sapiens) [compound 382] | – | “++++” (≥75% = ++++) | –
37 | 383 (YLLREWVNL; listed as Homo sapiens) [compound 383] | – | “++++” (≥75% = ++++) | –
38 | 384 (YMIGSEVGNYL; listed as Homo sapiens) [compound 384] | – | “++++” (≥75% = ++++) | –
39 | 385 (YTIPLAIKL; listed as Homo sapiens) [compound 385] | – | “+++” (≥50 = +++) | –
40 | 427 (LLYDAVHIV; listed as Homo sapiens) [compound 427] | – | – | ++ (20%-49% = ++)
41 | 521 (YLYGQTTTYL; listed as Homo sapiens) [compound 521] | – | – | ++ (20%-49% = ++)
